Measurements from patent US20100047166A1 (published 2010).

Molecular target: T1, 58P1D12 protein expressed on the cell surface (3T3-58P1D12, MDCK/58P1D12, OVCAR-5/58P1D12, xenograft cells) (human, UniProt Q9H9P2 22-273)
T1 construct: also called cell surface 58P1D12; 58P1D12-3T3
T1 sequence: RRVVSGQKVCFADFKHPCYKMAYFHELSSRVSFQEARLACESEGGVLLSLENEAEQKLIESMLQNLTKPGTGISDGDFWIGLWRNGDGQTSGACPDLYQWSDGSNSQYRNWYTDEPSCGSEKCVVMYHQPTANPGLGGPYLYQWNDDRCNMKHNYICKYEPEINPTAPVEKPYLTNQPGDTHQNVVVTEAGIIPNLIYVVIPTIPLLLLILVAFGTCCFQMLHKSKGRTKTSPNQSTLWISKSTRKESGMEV
Test: FACS saturation binding on 3T3-58P1D12 cells, one site binding fit

Kd: 3 nM
B1: 58P1D12 MAb Ha8-4c4.1 (hybridoma ATCC PTA-9404) (antibody, V domains shown)
VH: QVQLQESGPGLVKPSETLSLTCTVSGGSVSSGGYYWSWIRQPPGKGLEWIGYIYYSGGTNYNPSLKSRVTISVDTSKNQFSLKLTSVTAADTAVYYCARESGYCTNVACFPDAFDIWGQGTMVTVSS
VL: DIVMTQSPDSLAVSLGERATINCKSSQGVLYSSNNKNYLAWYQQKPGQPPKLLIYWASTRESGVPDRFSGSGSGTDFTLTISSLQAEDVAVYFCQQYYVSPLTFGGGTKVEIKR
notes: Fully human IgG1 kappa (gamma 1 kappa) from XenoMouse
